Here are results for 7 molecules from patent publication US20210380702A1 (Regeneron, published 2021).

In assay [1] the target is T1, Human PD-L1 Dimer (human, UniProt Q9NZQ7 19-239).
T1 construct: also called hPD-L1 dimer; hPD-L1-hFc
The experiment in a line: SPR (Biacore), mAb captured, 25C. As to the method:
(§1) Binding association and dissociation rate constants (kₐ and kd, respectively), equilibrium dissociation constants and dissociation half-lives (KD and t_{1/2}, respectively) of antigen binding to purified anti-PD-L1 monoclonal antibodies were determined using a real-time surface plasmon resonance biosensor assay on a Biacore 4000 instrument. The Biacore sensor surface was either derivatized with polyclonal rabbit anti-mouse antibody (GE, #BR-1008-38) or with monoclonal mouse anti-human Fc antibody (GE, #BR-1008-39) to capture approximately 200-300 RUs of anti-PD-L1 monoclonal antibodies, expressed with either a mouse Fc or with human Fc, respectively. […] Different concentrations of PD-L1 reagents were injected over the anti-PD-L1 monoclonal antibody captured surface at a flow rate of 30 μL/min. The binding of the PD-L1 reagents to the captured monoclonal antibodies was monitored for 3 to 4 minutes while the dissociation of antibody bound PD-L1 reagents was monitored for 10 minutes in HBST running buffer (0.01 M HEPES pH 7.4, 0.15 M NaCl, 3 mM EDTA, 0.05% v/v Surfactant tween-20). Experiments were performed at either 25° C. or 37° C. Kinetic association (kₐ) and dissociation (kd) rate constants were determined by processing and fitting the data to a 1:1 binding model using Scrubber 2.0c curve fitting software. Binding dissociation equilibrium constants (KD) and dissociative half-lives (t_{1/2}) were then calculated from the kinetic rate constants as: KD (M)=kd/kₐ and t_{1/2} (min)=[In2/(60*kd)].

For assay [2], the target named is T2, recombinant cynomolgus monkey PD-L1 with a C-terminal mouse IgG2a Fc tag (cynomolgus monkey (Macaca fascicularis)).
T2 construct: also called MfPD-L1-mFc; monkey PD-L1-mFc
T2 sequence (chain, as listed by the source limits assumed): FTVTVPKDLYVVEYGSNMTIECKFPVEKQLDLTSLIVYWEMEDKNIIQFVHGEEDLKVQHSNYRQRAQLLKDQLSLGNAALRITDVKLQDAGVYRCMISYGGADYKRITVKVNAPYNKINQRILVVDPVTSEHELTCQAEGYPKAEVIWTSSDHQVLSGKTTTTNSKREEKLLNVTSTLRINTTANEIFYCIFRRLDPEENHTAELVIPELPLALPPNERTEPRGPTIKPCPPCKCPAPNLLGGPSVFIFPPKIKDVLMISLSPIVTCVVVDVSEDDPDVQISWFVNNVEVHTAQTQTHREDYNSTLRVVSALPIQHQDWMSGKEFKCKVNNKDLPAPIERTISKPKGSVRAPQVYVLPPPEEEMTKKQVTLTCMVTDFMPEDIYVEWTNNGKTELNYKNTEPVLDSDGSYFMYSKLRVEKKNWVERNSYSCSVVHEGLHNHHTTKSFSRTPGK
Put plainly: SPR (Biacore), mAb captured, 25C. As to the method:
as §1
In general terms: SPR reads the build-up and loss of mass on a sensor chip optically.

Assay [3] has as its target T3, recombinant cynomolgus monkey PD-L1 with a C-terminal myc-myc-hexahistidine tag (cynomolgus monkey (Macaca fascicularis)).
T3 construct: also called MfPD-L1-MMH; MfPD-L1-MMH Monomer
The experiment in a line: SPR (Biacore), mAb captured, 25C. As to the method: as §1

In assay [4] the target is T1, Human PD-L1 Dimer. The experiment in a line: SPR (Biacore), mAb captured, 37C. As to the method: as §1
Assay [5] deals with T4, recombinant human PD-L1 (amino acids 19-239 of NP_054862.1) with a C-terminal myc-myc-hexahistidine tag (human).
T4 construct: also called hPD-L1-MMH; hPD-L1-MMH Monomer
T4 sequence (chain, as listed by the source limits assumed): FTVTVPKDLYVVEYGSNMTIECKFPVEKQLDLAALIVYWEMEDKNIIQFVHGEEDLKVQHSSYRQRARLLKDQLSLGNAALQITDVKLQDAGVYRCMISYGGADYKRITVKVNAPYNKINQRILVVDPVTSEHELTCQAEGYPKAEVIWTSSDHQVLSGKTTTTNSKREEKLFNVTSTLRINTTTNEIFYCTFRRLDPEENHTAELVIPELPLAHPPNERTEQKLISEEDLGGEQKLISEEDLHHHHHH
The experiment in a line: SPR (Biacore), mAb captured, 37C. As to the method:
as §1

For assay [6], the target named is T3, recombinant cynomolgus monkey PD-L1 …. Put plainly: SPR (Biacore), mAb captured, 37C. The method, then:
as §1

Assay [7] has as its target T5, recombinant cynomolgus monkey PD-L1 expressed with a C-terminal mouse IgG2a Fc tag (cynomolgus monkey).
T5 construct: also called MfPD-L1-mFc; monkey PD-L1-mFc
The experiment in a line: SPR (Biacore), mAb captured, 37C. The method, then:
as §1

The target of assay [8] is full length human PD-L1 (amino acids 1 to 290 of NP_054862.1) on transfected cells (human, UniProt Q9NZQ7 19-290). Put plainly: cell-based or functional assay.
Sequence of full length human PD-L1 (amino acids 1 to 290 of NP_054862.1) on transfected cells (Q9NZQ7 19-290 limits assumed): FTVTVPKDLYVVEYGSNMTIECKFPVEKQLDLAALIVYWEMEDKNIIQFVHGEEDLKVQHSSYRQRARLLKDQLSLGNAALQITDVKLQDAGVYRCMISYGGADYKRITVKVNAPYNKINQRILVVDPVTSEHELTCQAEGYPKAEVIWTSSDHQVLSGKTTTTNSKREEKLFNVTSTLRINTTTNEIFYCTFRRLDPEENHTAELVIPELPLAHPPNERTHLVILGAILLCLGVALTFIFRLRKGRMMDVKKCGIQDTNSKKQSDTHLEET

Values joined by “and” are separate entries in the source; they are usually repeats but may differ in a detail not shown here. Identical values can stand only once.

T1 sequence (Q9NZQ7 19-239): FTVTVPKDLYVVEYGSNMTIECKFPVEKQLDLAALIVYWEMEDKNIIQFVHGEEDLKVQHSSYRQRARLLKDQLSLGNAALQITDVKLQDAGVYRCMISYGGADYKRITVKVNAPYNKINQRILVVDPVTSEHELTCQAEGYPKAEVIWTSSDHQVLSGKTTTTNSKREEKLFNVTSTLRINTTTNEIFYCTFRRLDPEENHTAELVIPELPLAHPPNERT
T3 sequence (chain, as listed by the source limits assumed): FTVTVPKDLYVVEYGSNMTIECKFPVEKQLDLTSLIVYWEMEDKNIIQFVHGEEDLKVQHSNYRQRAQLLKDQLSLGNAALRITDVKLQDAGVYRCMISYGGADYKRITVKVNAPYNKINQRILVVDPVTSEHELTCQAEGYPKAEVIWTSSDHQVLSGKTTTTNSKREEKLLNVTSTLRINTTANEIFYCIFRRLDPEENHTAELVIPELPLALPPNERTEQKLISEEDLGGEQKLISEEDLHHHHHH

B1: H1H9354P2 (antibody, human IgG1, V domains shown)
VH: EVQLVESGGGLVQPGGSLRLSCEASGFTVGVNHMNWVRQAPGKGLEWVSVIFSSGRTFYGDYVKGRLTIFRQTSQNTVYLQMNSLRSEDTAIYYCARGIGGLDIWGRGTMVTVSS
VL: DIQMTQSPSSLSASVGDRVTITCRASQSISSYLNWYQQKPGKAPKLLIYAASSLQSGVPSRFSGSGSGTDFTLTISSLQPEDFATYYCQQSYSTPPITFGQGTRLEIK
What is called Kd is the constant that tells how readily two partners part at equilibrium. By koff is commonly meant a measure of how fast the partners let go of each other. What is called kon is a measure of how fast the partners come together. For the molecule B1, the Kd in assay [1] turned out to be 0.689 nM; in assay [2], 0.447 nM; in assay [3] it was 6.64 nM; in assay [4], 0.317 nM; in assay [5] it was 15.4 nM; in assay [6] it was 9.82 nM. Also, the koff in assay [1] stood at 0.000116 s⁻¹; in assay [2], 9.14e-05 s⁻¹; in assay [3], 0.000305 s⁻¹; in assay [4], 0.000145 s⁻¹; in assay [5] it was 0.00114 s⁻¹; in assay [6], 0.000844 s⁻¹. Also, the kon in assay [1] amounted to 168000 M⁻¹ s⁻¹; in assay [2] it was 205000 M⁻¹ s⁻¹; in assay [3], 46000 M⁻¹ s⁻¹; in assay [4] it was 456000 M⁻¹ s⁻¹; in assay [5], 73900 M⁻¹ s⁻¹; in assay [6], 85900 M⁻¹ s⁻¹. In addition, the t1/2 came out at 100 min in assay [1]; 126 min in assay [2]; 38 min in assay [3]; 80 min in assay [4]; 10 min in assay [5]; 14 min in assay [6].

B2: H1H8323N (antibody, V domains shown)
VH: QVQLVQSGAEVKMPGSSVRVSCKASGGIFSSSTISWVRQAPGQGLEWMGEIIPVFGTVNYAQKFQDRVIFTADESTTTAYMELSSLKSGDTAVYFCARNWGLGSFYIWGQGTMVTVSS
VL: EIVLTQSPGTLSLSPGERATLSCRASQSFNFNYLAWYQQKPGQAPRLLIYGASSRATGIPDRFSGSGSGTDFTLTINRLEPEDFGVFYCQQYESAPWTFGQGTKVEIK
notes: human IgG1 Fc form (H1H prefix) of numerical identifier 8323
On to B2, for which, in assay [7], the Kd was determined as 0.0451 nM, the koff was found to be 0.000135 s⁻¹, the kon came out at 2.99e+06 M⁻¹ s⁻¹ and the t1/2 was found to be 86 min.

B3: H1H9364P2 (antibody, human IgG1, V domains shown)
VH: EVQLVESGGGLVQPGRSLRLSCAASGFTFDDYALHWVRQAPGKGLEWVSGISWTGGTIDYADSVKGRFTISRDNAKNSLYLQMSSLRTEDTAIYYCTRDIRGNWKYGGWFDPWGQGTLVTVSS
VL: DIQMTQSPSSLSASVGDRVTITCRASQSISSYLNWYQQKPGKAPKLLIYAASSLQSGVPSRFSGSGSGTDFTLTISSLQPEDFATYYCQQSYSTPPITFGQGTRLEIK
B3: the dissociation constant (Kd) in assay [1] was 0.0437 nM; in assay [2], 0.0587 nM and 0.0462 nM; in assay [3] it was 0.412 nM; in assay [4], 0.0208 nM; in assay [5], 0.417 nM; in assay [6], 0.566 nM. The koff in assay [1] was 0.000106 s⁻¹; in assay [2] it was 7.75e-05 s⁻¹ and 5.8e-05 s⁻¹; in assay [3] it was 0.000312 s⁻¹; in assay [4], 6.96e-05 s⁻¹; in assay [5] it was 0.000563 s⁻¹; in assay [6] it was 0.000633 s⁻¹. Also, the kon was 2.42e+06 M⁻¹ s⁻¹ in assay [1]; 1.32e+06 M⁻¹ s⁻¹ and 1.25e+06 M⁻¹ s⁻¹ in assay [2]; 757000 M⁻¹ s⁻¹ in assay [3]; 3.34e+06 M⁻¹ s⁻¹ in assay [4]; 1.35e+06 M⁻¹ s⁻¹ in assay [5]; 1.12e+06 M⁻¹ s⁻¹ in assay [6]. Moreover, the t1/2 was 109 min in assay [1]; 149 min and 199 min in assay [2]; 37 min in assay [3]; 166 min in assay [4]; 21 min in assay [5]; 18 min in assay [6].

B4: H1H9387P2 (antibody, human IgG1, V domains shown)
VH: QVQLVQSGAEVKKPGSSVKVSCKASGGTFNTYVLSWVRQAPGQGLEWMGEIIPILGAANYAQNFQGRVTFTTDESTNTAYMDLSSLRSEDTAVYYCARDRTSGGFDPWGQGTLVTVSS
VL: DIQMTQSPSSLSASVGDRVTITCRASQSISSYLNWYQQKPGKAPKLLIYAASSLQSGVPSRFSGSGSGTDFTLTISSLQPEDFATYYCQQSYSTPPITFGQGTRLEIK
With B4, the equilibrium dissociation constant (Kd) in assay [1] is 0.0427 nM; in assay [2], 0.0452 nM and 0.073 nM; in assay [3] it was 25.5 nM; in assay [4], 0.0639 nM; in assay [5] it was 39.1 nM; in assay [6], 48.9 nM. Further, the koff in assay [1] was 0.000217 s⁻¹; in assay [2], 0.000161 s⁻¹ and 0.000212 s⁻¹; in assay [3], 0.0604 s⁻¹; in assay [4], 0.000392 s⁻¹; in assay [5], 0.137 s⁻¹; in assay [6], 0.157 s⁻¹. Besides, the kon was 5.07e+06 M⁻¹ s⁻¹ in assay [1]; 3.55e+06 M⁻¹ s⁻¹ and 2.9e+06 M⁻¹ s⁻¹ in assay [2]; 2.37e+06 M⁻¹ s⁻¹ in assay [3]; 6.12e+06 M⁻¹ s⁻¹ in assay [4]; 3.49e+06 M⁻¹ s⁻¹ in assay [5]; 3.2e+06 M⁻¹ s⁻¹ in assay [6]. Moreover, the t1/2 is 53 min in assay [1]; 72 min and 55 min in assay [2]; 0.2 min in assay [3]; 29 min in assay [4]; 0.08 min in assay [5]; 0.07 min in assay [6].

B5: H1H9396P2 (antibody, human IgG1, V domains shown)
VH: QVQLVQSGAEVEKPGASVKVSCKASGYIFTHYGISWVRQAPGQGLEWVGWISPYNGYTDYAQKLQGRVTLTTDTSTTTAYMELRNLRSDDTAMYYCSRGRGPYWSFDLWGRGTLVTVSS
VL: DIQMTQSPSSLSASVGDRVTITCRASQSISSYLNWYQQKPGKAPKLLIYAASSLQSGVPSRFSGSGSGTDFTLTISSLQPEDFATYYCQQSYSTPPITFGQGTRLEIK
B5: the Kd in assay [1] is 0.245 nM; in assay [2], 0.225 nM; in assay [3], 12.2 nM; in assay [4] it was 0.237 nM; in assay [5], 33 nM; in assay [6], 30.5 nM. For the same molecule, the koff in assay [1] worked out at 0.00019 s⁻¹; in assay [2], 0.000188 s⁻¹; in assay [3], 0.00252 s⁻¹; in assay [4], 0.000258 s⁻¹; in assay [5], 0.0113 s⁻¹; in assay [6], 0.012 s⁻¹. Further, the kon came to 776000 M⁻¹ s⁻¹ in assay [1]; 837000 M⁻¹ s⁻¹ in assay [2]; 206000 M⁻¹ s⁻¹ in assay [3]; 1.09e+06 M⁻¹ s⁻¹ in assay [4]; 344000 M⁻¹ s⁻¹ in assay [5]; 394000 M⁻¹ s⁻¹ in assay [6]. In addition, the t1/2 in assay [1] was 61 min; in assay [2], 61 min; in assay [3] it was 4.6 min; in assay [4], 45 min; in assay [5], 1 min; in assay [6], 1 min.

B6: H1H8314N (antibody, V domains shown)
VH: EVQLVESGGGVVRPGGSLRLSCAASGFTFDDYGMTWVRQAPGRGLEWVSGIHWHGKRTGYADSVKGRFTISRDNAKKSLYLQMNSLKGEDTALYHCVRGGMSTGDWFDPWGQGTLVIVSS
VL: DIQMTQSPSSLSASLGDRVTITCRASQSINSYLNWYQQKPGKAPKLLIYVASSLQSGVPSRFSGSGSGTEFTLTISNLQPEDFATYYCQQSYSTPPITFGQGTRLEIK
notes: human IgG1 Fc form (H1H prefix) of numerical identifier 8314
For the molecule B6, in assay [8], the “Concentration [M] of Antibody at 125% activation” value was 6.57e-11 M and the “Emax mean [%] @ 100 nM” value worked out at 148%. In addition, in assay [7], the Kd was 0.0333 nM, the koff was 9.6e-05 s⁻¹, the kon came out at 2.89e+06 M⁻¹ s⁻¹ and the t1/2 was determined as 120 min.

B7: H1H9382P2 (antibody, human IgG1, V domains shown)
VH: EVQLVESGGGLVQPGGSLRLSCAASGFTVGTNFMNWVRQAPGKGLEWVSAIYSGGTANYADSVKGRFTISRDTSRNTLYLQMNSLRTEDTAVYYCARGGGMDVWGQGTTVTVSS
VL: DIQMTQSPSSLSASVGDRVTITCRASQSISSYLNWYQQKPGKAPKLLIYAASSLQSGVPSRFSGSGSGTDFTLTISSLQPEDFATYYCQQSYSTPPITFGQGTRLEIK
Turning to B7, the Kd in assay [1] was 0.663 nM; in assay [2], 0.626 nM; in assay [3], 157 nM; in assay [4], 0.278 nM; in assay [5] it was 107 nM; in assay [6], 189 nM. Besides, the koff is 0.000148 s⁻¹ in assay [1]; 0.000133 s⁻¹ in assay [2]; 0.0129 s⁻¹ in assay [3]; 0.000137 s⁻¹ in assay [4]; 0.0107 s⁻¹ in assay [5]; 0.0245 s⁻¹ in assay [6]. The kon in assay [1] was found to be 223000 M⁻¹ s⁻¹; in assay [2] it was 213000 M⁻¹ s⁻¹; in assay [3], 82200 M⁻¹ s⁻¹; in assay [4], 492000 M⁻¹ s⁻¹; in assay [5] it was 99700 M⁻¹ s⁻¹; in assay [6] it was 130000 M⁻¹ s⁻¹. Also, the t1/2 in assay [1] stood at 78 min; in assay [2] it was 87 min; in assay [3], 0.9 min; in assay [4], 84 min; in assay [5], 1.1 min; in assay [6], 0.5 min.
